Experimental data reported in patent US10562947B2, “Compositions and methods for preventing or treating diseases, conditions or processes characterized by aberrant fibroblast proliferation and extracellular matrix deposition” (MOERAE MATRIX, INC., priority 2011, dated 2020).

Experiments:
Experiment in all cases: Kinase Profiling Assay
Format in all cases: biochemical
Settings in all cases: 100 μM peptide
ASK1(h) = target: T1, ASK1(h) (Homo sapiens, UniProt Q99683)
T1 sequence (Q99683 1-1374): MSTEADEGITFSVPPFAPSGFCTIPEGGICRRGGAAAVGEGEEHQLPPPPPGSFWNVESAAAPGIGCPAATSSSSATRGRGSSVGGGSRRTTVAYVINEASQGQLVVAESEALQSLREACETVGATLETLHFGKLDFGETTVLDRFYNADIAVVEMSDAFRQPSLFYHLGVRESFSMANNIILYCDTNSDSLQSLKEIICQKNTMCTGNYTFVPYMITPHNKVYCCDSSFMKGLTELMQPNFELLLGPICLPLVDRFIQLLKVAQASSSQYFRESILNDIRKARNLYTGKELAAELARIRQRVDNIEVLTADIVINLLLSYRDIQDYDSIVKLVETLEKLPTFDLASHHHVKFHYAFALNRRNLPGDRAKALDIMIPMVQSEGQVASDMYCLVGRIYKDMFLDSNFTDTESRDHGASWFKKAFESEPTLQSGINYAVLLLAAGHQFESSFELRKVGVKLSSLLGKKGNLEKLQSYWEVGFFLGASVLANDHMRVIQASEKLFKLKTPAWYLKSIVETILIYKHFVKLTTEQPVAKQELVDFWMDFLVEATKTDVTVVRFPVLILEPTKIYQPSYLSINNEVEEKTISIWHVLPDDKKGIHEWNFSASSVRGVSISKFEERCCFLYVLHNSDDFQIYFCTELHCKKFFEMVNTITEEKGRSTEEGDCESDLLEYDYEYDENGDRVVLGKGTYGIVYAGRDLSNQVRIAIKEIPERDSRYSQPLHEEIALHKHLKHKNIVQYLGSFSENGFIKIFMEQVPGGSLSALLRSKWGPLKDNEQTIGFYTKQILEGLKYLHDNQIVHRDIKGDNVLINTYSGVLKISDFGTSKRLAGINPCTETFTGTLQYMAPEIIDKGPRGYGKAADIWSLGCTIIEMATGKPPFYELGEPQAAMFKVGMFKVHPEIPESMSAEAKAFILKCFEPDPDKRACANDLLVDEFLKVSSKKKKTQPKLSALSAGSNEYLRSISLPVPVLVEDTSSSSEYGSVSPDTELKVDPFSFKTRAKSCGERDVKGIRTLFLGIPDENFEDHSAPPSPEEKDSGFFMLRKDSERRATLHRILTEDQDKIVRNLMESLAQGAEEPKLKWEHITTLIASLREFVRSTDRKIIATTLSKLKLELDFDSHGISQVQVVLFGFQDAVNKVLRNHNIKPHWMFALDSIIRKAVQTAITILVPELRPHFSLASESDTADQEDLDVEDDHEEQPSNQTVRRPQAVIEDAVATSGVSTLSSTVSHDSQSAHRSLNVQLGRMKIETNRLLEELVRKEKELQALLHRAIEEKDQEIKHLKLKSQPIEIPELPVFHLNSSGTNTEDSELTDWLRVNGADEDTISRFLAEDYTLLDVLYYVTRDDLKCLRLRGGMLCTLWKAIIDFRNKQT
Outline: (§1)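 MK2 inhibitory peptides were screened for specificity across a commercial panel of 266 human kinases, and each kinase activity measurement was run in duplicate.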

EphA1(h) = target: T2, EphA1(h) (Homo sapiens, UniProt P21709)
T2 sequence (P21709 26-976): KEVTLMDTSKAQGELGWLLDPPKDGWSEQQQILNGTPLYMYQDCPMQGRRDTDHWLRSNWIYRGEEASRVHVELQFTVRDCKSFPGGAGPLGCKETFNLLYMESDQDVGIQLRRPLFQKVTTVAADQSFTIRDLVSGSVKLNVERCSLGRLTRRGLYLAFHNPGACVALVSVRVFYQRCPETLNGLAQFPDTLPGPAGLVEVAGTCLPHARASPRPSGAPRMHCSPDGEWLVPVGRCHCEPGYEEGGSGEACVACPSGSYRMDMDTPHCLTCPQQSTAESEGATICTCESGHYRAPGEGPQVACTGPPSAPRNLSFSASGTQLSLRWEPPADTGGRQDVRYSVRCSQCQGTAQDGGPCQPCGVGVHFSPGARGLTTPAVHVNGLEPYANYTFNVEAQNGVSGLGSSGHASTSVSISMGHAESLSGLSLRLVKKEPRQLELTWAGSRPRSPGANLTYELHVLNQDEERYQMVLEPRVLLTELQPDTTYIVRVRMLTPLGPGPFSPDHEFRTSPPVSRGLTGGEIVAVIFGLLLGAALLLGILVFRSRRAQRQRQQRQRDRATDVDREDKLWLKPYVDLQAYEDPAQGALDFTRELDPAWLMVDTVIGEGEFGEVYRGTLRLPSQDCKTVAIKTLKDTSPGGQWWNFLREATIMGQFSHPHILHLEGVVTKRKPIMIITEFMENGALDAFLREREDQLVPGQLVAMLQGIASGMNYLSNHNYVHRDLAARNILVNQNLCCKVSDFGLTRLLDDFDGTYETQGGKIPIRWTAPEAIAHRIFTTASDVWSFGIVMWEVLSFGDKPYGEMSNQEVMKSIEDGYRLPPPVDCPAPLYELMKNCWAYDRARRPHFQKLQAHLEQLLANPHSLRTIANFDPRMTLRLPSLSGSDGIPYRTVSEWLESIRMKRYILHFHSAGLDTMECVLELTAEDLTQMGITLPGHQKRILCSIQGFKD
Outline: as §1

Yes(h) = Yes(h) (Homo sapiens, UniProt P07947)
Outline: as §1

Yes(h), sequence (P07947 whole entry): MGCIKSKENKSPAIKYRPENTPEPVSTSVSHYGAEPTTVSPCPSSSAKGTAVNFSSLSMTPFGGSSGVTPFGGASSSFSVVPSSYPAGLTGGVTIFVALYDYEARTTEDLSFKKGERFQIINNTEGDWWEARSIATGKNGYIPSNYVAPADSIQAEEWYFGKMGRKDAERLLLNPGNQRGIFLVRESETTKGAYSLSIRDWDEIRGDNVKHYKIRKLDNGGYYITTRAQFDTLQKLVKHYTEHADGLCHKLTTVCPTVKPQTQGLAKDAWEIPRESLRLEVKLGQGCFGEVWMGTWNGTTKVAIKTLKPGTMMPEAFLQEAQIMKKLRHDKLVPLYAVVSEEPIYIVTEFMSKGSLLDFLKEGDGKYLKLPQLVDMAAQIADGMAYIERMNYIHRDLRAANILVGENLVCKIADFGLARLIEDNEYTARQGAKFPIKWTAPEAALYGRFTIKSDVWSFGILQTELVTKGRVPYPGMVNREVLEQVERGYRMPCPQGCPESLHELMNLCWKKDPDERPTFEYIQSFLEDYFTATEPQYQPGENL

| Sequence | ASK1(h) % activity (ASK1(h)) | EphA1(h) % activity (EphA1(h)) | Yes(h) % activity (Yes(h)) |
| --- | --- | --- | --- |
| HRRIKAWLKKIKALARQLGVAA (Mammalian) [MMI-0500] | −4% | 40% | – |
| KAFAKLAARLYRKALARQLGVAA [MMI-0400] | 69% | 61% | 14% |
| FAKLAARLYRKALARQLGVAA [MMI-0300] | 80% | 73% | 67% |
| YARAAARQARAKALNRQLGVA (Mammalian) [MMI-0200] | 101% | – | 93% |
